According to PMC11969024 (2025):

B1: peptide HD2 (from tick evasin EVA4) / CXCL14 (biotinylated, synthetic) (parent complex)
chain 1: EEDDYTAYAPLTCYFT
chain 2: SKCKCSRKGPKIRYSDVKKLEMKPKYPHCEEKMVIITTKSVSRYRGQEHCLHPKLQSTKRFIKWYNAWNEKRRVYEE
B2: peptide HD2 (from tick evasin EVA4) / CXCL11 (biotinylated, synthetic) (parent complex)
chain 1: EEDDYTAYAPLTCYFT
chain 2: FPMFKRGRCLCIGPGVKAVKVADIEKASIMYPSNNCDKIEVIITLKENKGQRCLNPKSKQARLIIKKVERKNF

Variants of: B1

Variant | enrichment
chain 1 EEDDYNAYAPLTCYFT [chain 1 T6N] | 0.149 log2 (difference from the parental peptide)
chain 1 EEDDYMAYAPLTCYFT [chain 1 T6M] | 1.47 log2 (difference from the parental peptide)
chain 1 EEDDYPAYAPLTCYFT [chain 1 T6P] | 1.85 log2 (difference from the parental peptide)
chain 1 EEDDYTHYAPLTCYFT [chain 1 A7H] | 1.29 log2 (difference from the parental peptide)
chain 1 EEDDYTYYAPLTCYFT [chain 1 A7Y] | 2.89 log2 (difference from the parental peptide)
chain 1 EEDDYTAYAPLGCYFT [chain 1 T12G] | -8.56 log2 (difference from the parental peptide)
chain 1 EEDDYTAYAPLECYFT [chain 1 T12E] | -5.22 log2 (difference from the parental peptide)
chain 1 EEDDYTAYAPLTCYST [chain 1 F15S] | -6.23 log2 (difference from the parental peptide)
chain 1 EEDDYTAYAPLTCYYT [chain 1 F15Y] | 3.35 log2 (difference from the parental peptide)
chain 1 EEDDYTAYAPLTCYVT [chain 1 F15V] | 0.451 log2 (difference from the parental peptide)
chain 1 EEDDYTAYAPLTCYHT [chain 1 F15H] | -4.57 log2 (difference from the parental peptide)
chain 1 EEDDYTAYAFLTCYFT [chain 1 P10F] | -2.31 log2 (difference from the parental peptide)
chain 1 EEDDYTAYAMLTCYFT [chain 1 P10M] | 2.33 log2 (difference from the parental peptide)
chain 1 EEDDYTAYAQLTCYFT [chain 1 P10Q] | -4.65 log2 (difference from the parental peptide)
chain 1 EEDDYTAYKPLTCYFT [chain 1 A9K] | -4.89 log2 (difference from the parental peptide)
chain 1 EEDDYTAYTPLTCYFT [chain 1 A9T] | 2.11 log2 (difference from the parental peptide)
chain 1 EEDDYTAYFPLTCYFT [chain 1 A9F] | 0.278 log2 (difference from the parental peptide)
chain 1 EEDDYTAYGPLTCYFT [chain 1 A9G] | -5.95 log2 (difference from the parental peptide)
chain 1 SEDDYTAYAPLTCYFT [chain 1 E1S] | -6.03 log2 (difference from the parental peptide)
chain 1 VEDDYTAYAPLTCYFT [chain 1 E1V] | -5.63 log2 (difference from the parental peptide)
chain 1 EEDDYTAYAPLTTYFT [chain 1 C13T] | -5.9 log2 (difference from the parental peptide)
chain 1 EEDDYTAYAPLTPYFT [chain 1 C13P] | -6.86 log2 (difference from the parental peptide)
chain 1 EEDDYTAYAPLTCAFT [chain 1 Y14A] | -0.328 log2 (difference from the parental peptide)
chain 1 EEDDYTAYAPATCYFT [chain 1 L11A] | 0.339 log2 (difference from the parental peptide)
chain 1 EEDDYTAYAPLTCYFC [chain 1 T16C] | 1.19 log2 (difference from the parental peptide)
chain 1 EENDYTAYAPLTCYFT [chain 1 D3N] | 1.21 log2 (difference from the parental peptide)
chain 1 ENDDYTAYAPLTCYFT [chain 1 E2N] | 0.243 log2 (difference from the parental peptide)
chain 1 EEDDMTAYAPLTCYFT [chain 1 Y5M] | -5.9 log2 (difference from the parental peptide)
chain 1 EEDDLTAYAPLTCYFT [chain 1 Y5L] | -2.83 log2 (difference from the parental peptide)

Variants of: B2

Variant | enrichment
chain 1 EEDDYTAYPPLTCYFT [chain 1 A9P] | 0.549 log2 (difference from the parental peptide)
chain 1 EEDDYTAYSPLTCYFT [chain 1 A9S] | -0.211 log2 (difference from the parental peptide)
chain 1 EEDDYTAYFPLTCYFT [chain 1 A9F] | -0.826 log2 (difference from the parental peptide)
chain 1 EEDDYTAYVPLTCYFT [chain 1 A9V] | -2.18 log2 (difference from the parental peptide)
chain 1 EEDDYTAYGPLTCYFT [chain 1 A9G] | -1.08 log2 (difference from the parental peptide)
chain 1 EEDDYTAYYPLTCYFT [chain 1 A9Y] | -4.48 log2 (difference from the parental peptide)
chain 1 EEDDYTAYAHLTCYFT [chain 1 P10H] | -5.09 log2 (difference from the parental peptide)
chain 1 EEDDYTAYAALTCYFT [chain 1 P10A] | -0.641 log2 (difference from the parental peptide)
chain 1 EEDDYTAYAGLTCYFT [chain 1 P10G] | 2.73 log2 (difference from the parental peptide)
chain 1 EEDDYTAYATLTCYFT [chain 1 P10T] | -0.0022 log2 (difference from the parental peptide)
chain 1 EEDDHTAYAPLTCYFT [chain 1 Y5H] | -0.00324 log2 (difference from the parental peptide)
chain 1 EEDDLTAYAPLTCYFT [chain 1 Y5L] | -4.33 log2 (difference from the parental peptide)
chain 1 EEDDYLAYAPLTCYFT [chain 1 T6L] | 3.05 log2 (difference from the parental peptide)
chain 1 EEDDYEAYAPLTCYFT [chain 1 T6E] | 3.52 log2 (difference from the parental peptide)
chain 1 EEDDYNAYAPLTCYFT [chain 1 T6N] | 1.03 log2 (difference from the parental peptide)
chain 1 EEDDYVAYAPLTCYFT [chain 1 T6V] | -0.999 log2 (difference from the parental peptide)
chain 1 EADDYTAYAPLTCYFT [chain 1 E2A] | -2.47 log2 (difference from the parental peptide)
chain 1 EKDDYTAYAPLTCYFT [chain 1 E2K] | -2.28 log2 (difference from the parental peptide)
chain 1 EDDDYTAYAPLTCYFT [chain 1 E2D] | 0.953 log2 (difference from the parental peptide)
chain 1 EWDDYTAYAPLTCYFT [chain 1 E2W] | 1.67 log2 (difference from the parental peptide)
chain 1 ENDDYTAYAPLTCYFT [chain 1 E2N] | -4.96 log2 (difference from the parental peptide)

Variant | enrichment
chain 1 ELDDYTAYAPLTCYFT [chain 1 E2L] | -1.04 log2 (difference from the parental peptide)
chain 1 EVDDYTAYAPLTCYFT [chain 1 E2V] | -1.84 log2 (difference from the parental peptide)
chain 1 EEDDYTAYAPLTTYFT [chain 1 C13T] | -3.56 log2 (difference from the parental peptide)
chain 1 EEDDYTAYAPLTSYFT [chain 1 C13S] | -1.17 log2 (difference from the parental peptide)
chain 1 EEDDYTAYAPLTPYFT [chain 1 C13P] | -5.74 log2 (difference from the parental peptide)
chain 1 EEDDYTAYAPLTNYFT [chain 1 C13N] | -3.76 log2 (difference from the parental peptide)
chain 1 EEDDYTAYAPLTLYFT [chain 1 C13L] | -8.45 log2 (difference from the parental peptide)
chain 1 EEDDYTAYAPLTHYFT [chain 1 C13H] | -5.78 log2 (difference from the parental peptide)
chain 1 EEDDYTAYAPLTCYFN [chain 1 T16N] | -3.84 log2 (difference from the parental peptide)
chain 1 EEDDYTAYAPLTCYFG [chain 1 T16G] | 0.304 log2 (difference from the parental peptide)
chain 1 EEDDYTAYAPLTCYFF [chain 1 T16F] | -2.01 log2 (difference from the parental peptide)
chain 1 EEDDYTAYAPLTCYFW [chain 1 T16W] | 0.43 log2 (difference from the parental peptide)
chain 1 EEDDYTAYAPLTCYFA [chain 1 T16A] | -0.756 log2 (difference from the parental peptide)
chain 1 EEDDYTAYAPLTCYFK [chain 1 T16K] | -4.41 log2 (difference from the parental peptide)
chain 1 GEDDYTAYAPLTCYFT [chain 1 E1G] | -4.38 log2 (difference from the parental peptide)
chain 1 SEDDYTAYAPLTCYFT [chain 1 E1S] | -1.7 log2 (difference from the parental peptide)
chain 1 FEDDYTAYAPLTCYFT [chain 1 E1F] | -0.271 log2 (difference from the parental peptide)
chain 1 HEDDYTAYAPLTCYFT [chain 1 E1H] | -5.11 log2 (difference from the parental peptide)
chain 1 MEDDYTAYAPLTCYFT [chain 1 E1M] | 0.144 log2 (difference from the parental peptide)
chain 1 QEDDYTAYAPLTCYFT [chain 1 E1Q] | 2.79 log2 (difference from the parental peptide)
chain 1 WEDDYTAYAPLTCYFT [chain 1 E1W] | 1.25 log2 (difference from the parental peptide)

Variant | enrichment
chain 1 VEDDYTAYAPLTCYFT [chain 1 E1V] | -6.09 log2 (difference from the parental peptide)
chain 1 TEDDYTAYAPLTCYFT [chain 1 E1T] | -1.21 log2 (difference from the parental peptide)
chain 1 EEDDYTAYAPLTCLFT [chain 1 Y14L] | -3.92 log2 (difference from the parental peptide)
chain 1 EEDDYTAYAPLTCGFT [chain 1 Y14G] | -6.05 log2 (difference from the parental peptide)
chain 1 EEDDYTAYAPLTCAFT [chain 1 Y14A] | -7.18 log2 (difference from the parental peptide)
chain 1 EEDDYTAYAPLTCVFT [chain 1 Y14V] | -5.26 log2 (difference from the parental peptide)
chain 1 EEDDYTAYAPLTCHFT [chain 1 Y14H] | -2.54 log2 (difference from the parental peptide)
chain 1 EEDDYTAYAPLTCWFT [chain 1 Y14W] | -6.01 log2 (difference from the parental peptide)
chain 1 EEDDYTALAPLTCYFT [chain 1 Y8L] | -0.881 log2 (difference from the parental peptide)
chain 1 EEDDYTATAPLTCYFT [chain 1 Y8T] | -5.62 log2 (difference from the parental peptide)
chain 1 EEDDYTAAAPLTCYFT [chain 1 Y8A] | -0.869 log2 (difference from the parental peptide)
chain 1 EEDDYTAWAPLTCYFT [chain 1 Y8W] | 2.23 log2 (difference from the parental peptide)
chain 1 EEDDYTAVAPLTCYFT [chain 1 Y8V] | -0.599 log2 (difference from the parental peptide)
chain 1 EEDDYTAGAPLTCYFT [chain 1 Y8G] | -1.09 log2 (difference from the parental peptide)
chain 1 EEDDYTAYAPFTCYFT [chain 1 L11F] | 2.94 log2 (difference from the parental peptide)
chain 1 EEDDYTAYAPKTCYFT [chain 1 L11K] | -4.12 log2 (difference from the parental peptide)
chain 1 EELDYTAYAPLTCYFT [chain 1 D3L] | -0.828 log2 (difference from the parental peptide)
chain 1 EEIDYTAYAPLTCYFT [chain 1 D3I] | -2.24 log2 (difference from the parental peptide)
chain 1 EEGDYTAYAPLTCYFT [chain 1 D3G] | -4.59 log2 (difference from the parental peptide)
chain 1 EEDQYTAYAPLTCYFT [chain 1 D4Q] | -3.62 log2 (difference from the parental peptide)
chain 1 EEDYYTAYAPLTCYFT [chain 1 D4Y] | -4.43 log2 (difference from the parental peptide)

Variant | enrichment
chain 1 EEDSYTAYAPLTCYFT [chain 1 D4S] | -5.73 log2 (difference from the parental peptide)
chain 1 EEDDYTVYAPLTCYFT [chain 1 A7V] | 0.52 log2 (difference from the parental peptide)
chain 1 EEDDYTTYAPLTCYFT [chain 1 A7T] | -0.798 log2 (difference from the parental peptide)
chain 1 EEDDYTKYAPLTCYFT [chain 1 A7K] | -3.04 log2 (difference from the parental peptide)
chain 1 EEDDYTYYAPLTCYFT [chain 1 A7Y] | 2.5 log2 (difference from the parental peptide)
chain 1 EEDDYTIYAPLTCYFT [chain 1 A7I] | 1.35 log2 (difference from the parental peptide)
chain 1 EEDDYTAYAPLNCYFT [chain 1 T12N] | -0.502 log2 (difference from the parental peptide)
chain 1 EEDDYTAYAPLPCYFT [chain 1 T12P] | -0.00384 log2 (difference from the parental peptide)
chain 1 EEDDYTAYAPLCCYFT [chain 1 T12C] | -5.77 log2 (difference from the parental peptide)
chain 1 EEDDYTAYAPLYCYFT [chain 1 T12Y] | 1.35 log2 (difference from the parental peptide)
chain 1 EEDDYTAYAPLLCYFT [chain 1 T12L] | -0.306 log2 (difference from the parental peptide)
chain 1 EEDDYTAYAPLRCYFT [chain 1 T12R] | -6.22 log2 (difference from the parental peptide)
chain 1 EEDDYTAYAPLTCYWT [chain 1 F15W] | -6.32 log2 (difference from the parental peptide)
chain 1 EEDDYTAYAPLTCYIT [chain 1 F15I] | -3.39 log2 (difference from the parental peptide)
chain 1 EEDDYTAYAPLTCYKT [chain 1 F15K] | -4.14 log2 (difference from the parental peptide)
chain 1 EEDDYTAYAPLTCYHT [chain 1 F15H] | -2.86 log2 (difference from the parental peptide)
chain 1 EEDDYTAYAPLTCYDT [chain 1 F15D] | -1.93 log2 (difference from the parental peptide)
chain 1 EEDDYTAYAPLTCYVT [chain 1 F15V] | -0.608 log2 (difference from the parental peptide)
chain 1 EEDDYTAYAPLTCYQT [chain 1 F15Q] | -2.96 log2 (difference from the parental peptide)
chain 1 EEDDYTAYAPLTCYPT [chain 1 F15P] | -3.5 log2 (difference from the parental peptide)
